According to patent US20210388087A1 (Chugai, published 2021):

B1: CE115HA000 N53K (antibody, human IgG1, kappa, L234A L235A, N297A, name in Kabat numbering)
heavy: QVQLVESGGGVVQPGRSLRLSCAASGFTFSNAWMHWVRQAPGKGLEWVAQIKAKSKNYATYYAESVKGRFTISRDDSKNSLYLQMNSLKTEDTAVYYCRYVHYGAYYGVDAWGQGTTVTVSSASTKGPSVFPLAPSSKSTSGGTAALGCLVKDYFPEPVTVSWNSGALTSGVHTFPAVLQSSGLYSLSSVVTVPSSSLGTQTYICNVNHKPSNTKVDKKVEPKSCDKTHTCPPCPAPEAAGGPSVFLFPPKPKDTLMISRTPEVTCVVVDVSHEDPEVKFNWYVDGVEVHNAKTKPREEQYASTYRVVSVLTVLHQDWLNGKEYKCKVSNKALPAPIEKTISKAKGQPREPQVYTLPPSRCELTKNQVSLSCAVKGFYPSDIAVEWESNGQPENNYKTTPPVLDSDGSFFLVSKLTVDKSRWQQGNVFSCSVMHEALHNHYTQKSLSLSPDYKDDDDK
chain: EPKSSDKTHTCPPCPAPELLGGPSVFLFPPKPKDTLMISRTPEVTCVVVDVSHEDPEVKFNWYVDGVEVHNAKTKPREEQYNSTYRVVSVLTVLHQDWLNGKEYKCKVSNKALPAPIEKTISKAKGQPREPQVCTLPPSRDELTKNQVSLWCLVKGFYPSDIAVEWESNGQPENNYKTTPPVLDSDGSFFLYSKLTVDKSRWQQGNVFSCSVMHEALHNRYTQKSLSLSP
light: DIVMTQSPLSLPVTPGEPASISCRSSQSLVHSNRNTYLHWYQQKPGQAPRLLIYKVSNRFSGVPDRFSGSGSGTDFTLKISRVEAEDVGVYYCGQGTQVPYTFGQGTKLEIKRTVAAPSVFIFPPSDEQLKSGTASVVCLLNNFYPREAKVQWKVDNALQSGNSQESVTEQDSKDSTYSLSSTLTLSKADYEKHKVYACEVTHQGLSSPVTKSFNRGEC
notes: one-arm antibody
B2: CE115HA000 N54A (antibody, human IgG1, kappa, L234A L235A, N297A, name in Kabat numbering)
heavy: QVQLVESGGGVVQPGRSLRLSCAASGFTFSNAWMHWVRQAPGKGLEWVAQIKAKSNAYATYYAESVKGRFTISRDDSKNSLYLQMNSLKTEDTAVYYCRYVHYGAYYGVDAWGQGTTVTVSSASTKGPSVFPLAPSSKSTSGGTAALGCLVKDYFPEPVTVSWNSGALTSGVHTFPAVLQSSGLYSLSSVVTVPSSSLGTQTYICNVNHKPSNTKVDKKVEPKSCDKTHTCPPCPAPEAAGGPSVFLFPPKPKDTLMISRTPEVTCVVVDVSHEDPEVKFNWYVDGVEVHNAKTKPREEQYASTYRVVSVLTVLHQDWLNGKEYKCKVSNKALPAPIEKTISKAKGQPREPQVYTLPPSRCELTKNQVSLSCAVKGFYPSDIAVEWESNGQPENNYKTTPPVLDSDGSFFLVSKLTVDKSRWQQGNVFSCSVMHEALHNHYTQKSLSLSPDYKDDDDK
chain: EPKSSDKTHTCPPCPAPELLGGPSVFLFPPKPKDTLMISRTPEVTCVVVDVSHEDPEVKFNWYVDGVEVHNAKTKPREEQYNSTYRVVSVLTVLHQDWLNGKEYKCKVSNKALPAPIEKTISKAKGQPREPQVCTLPPSRDELTKNQVSLWCLVKGFYPSDIAVEWESNGQPENNYKTTPPVLDSDGSFFLYSKLTVDKSRWQQGNVFSCSVMHEALHNRYTQKSLSLSP
light: DIVMTQSPLSLPVTPGEPASISCRSSQSLVHSNRNTYLHWYQQKPGQAPRLLIYKVSNRFSGVPDRFSGSGSGTDFTLKISRVEAEDVGVYYCGQGTQVPYTFGQGTKLEIKRTVAAPSVFIFPPSDEQLKSGTASVVCLLNNFYPREAKVQWKVDNALQSGNSQESVTEQDSKDSTYSLSSTLTLSKADYEKHKVYACEVTHQGLSSPVTKSFNRGEC
notes: one-arm antibody
B3: CE115HA000 N53W (antibody, human IgG1, kappa, L234A L235A, N297A, name in Kabat numbering)
heavy: QVQLVESGGGVVQPGRSLRLSCAASGFTFSNAWMHWVRQAPGKGLEWVAQIKAKSWNYATYYAESVKGRFTISRDDSKNSLYLQMNSLKTEDTAVYYCRYVHYGAYYGVDAWGQGTTVTVSSASTKGPSVFPLAPSSKSTSGGTAALGCLVKDYFPEPVTVSWNSGALTSGVHTFPAVLQSSGLYSLSSVVTVPSSSLGTQTYICNVNHKPSNTKVDKKVEPKSCDKTHTCPPCPAPEAAGGPSVFLFPPKPKDTLMISRTPEVTCVVVDVSHEDPEVKFNWYVDGVEVHNAKTKPREEQYASTYRVVSVLTVLHQDWLNGKEYKCKVSNKALPAPIEKTISKAKGQPREPQVYTLPPSRCELTKNQVSLSCAVKGFYPSDIAVEWESNGQPENNYKTTPPVLDSDGSFFLVSKLTVDKSRWQQGNVFSCSVMHEALHNHYTQKSLSLSPDYKDDDDK
chain: EPKSSDKTHTCPPCPAPELLGGPSVFLFPPKPKDTLMISRTPEVTCVVVDVSHEDPEVKFNWYVDGVEVHNAKTKPREEQYNSTYRVVSVLTVLHQDWLNGKEYKCKVSNKALPAPIEKTISKAKGQPREPQVCTLPPSRDELTKNQVSLWCLVKGFYPSDIAVEWESNGQPENNYKTTPPVLDSDGSFFLYSKLTVDKSRWQQGNVFSCSVMHEALHNRYTQKSLSLSP
light: DIVMTQSPLSLPVTPGEPASISCRSSQSLVHSNRNTYLHWYQQKPGQAPRLLIYKVSNRFSGVPDRFSGSGSGTDFTLKISRVEAEDVGVYYCGQGTQVPYTFGQGTKLEIKRTVAAPSVFIFPPSDEQLKSGTASVVCLLNNFYPREAKVQWKVDNALQSGNSQESVTEQDSKDSTYSLSSTLTLSKADYEKHKVYACEVTHQGLSSPVTKSFNRGEC
notes: one-arm antibody
B4: CE115HA000 N53S (antibody, human IgG1, kappa, L234A L235A, N297A, name in Kabat numbering)
heavy: QVQLVESGGGVVQPGRSLRLSCAASGFTFSNAWMHWVRQAPGKGLEWVAQIKAKSSNYATYYAESVKGRFTISRDDSKNSLYLQMNSLKTEDTAVYYCRYVHYGAYYGVDAWGQGTTVTVSSASTKGPSVFPLAPSSKSTSGGTAALGCLVKDYFPEPVTVSWNSGALTSGVHTFPAVLQSSGLYSLSSVVTVPSSSLGTQTYICNVNHKPSNTKVDKKVEPKSCDKTHTCPPCPAPEAAGGPSVFLFPPKPKDTLMISRTPEVTCVVVDVSHEDPEVKFNWYVDGVEVHNAKTKPREEQYASTYRVVSVLTVLHQDWLNGKEYKCKVSNKALPAPIEKTISKAKGQPREPQVYTLPPSRCELTKNQVSLSCAVKGFYPSDIAVEWESNGQPENNYKTTPPVLDSDGSFFLVSKLTVDKSRWQQGNVFSCSVMHEALHNHYTQKSLSLSPDYKDDDDK
chain: EPKSSDKTHTCPPCPAPELLGGPSVFLFPPKPKDTLMISRTPEVTCVVVDVSHEDPEVKFNWYVDGVEVHNAKTKPREEQYNSTYRVVSVLTVLHQDWLNGKEYKCKVSNKALPAPIEKTISKAKGQPREPQVCTLPPSRDELTKNQVSLWCLVKGFYPSDIAVEWESNGQPENNYKTTPPVLDSDGSFFLYSKLTVDKSRWQQGNVFSCSVMHEALHNRYTQKSLSLSP
light: DIVMTQSPLSLPVTPGEPASISCRSSQSLVHSNRNTYLHWYQQKPGQAPRLLIYKVSNRFSGVPDRFSGSGSGTDFTLKISRVEAEDVGVYYCGQGTQVPYTFGQGTKLEIKRTVAAPSVFIFPPSDEQLKSGTASVVCLLNNFYPREAKVQWKVDNALQSGNSQESVTEQDSKDSTYSLSSTLTLSKADYEKHKVYACEVTHQGLSSPVTKSFNRGEC
notes: one-arm antibody
B5: CE115HA000 N53Q (antibody, human IgG1, kappa, L234A L235A, N297A, name in Kabat numbering)
heavy: QVQLVESGGGVVQPGRSLRLSCAASGFTFSNAWMHWVRQAPGKGLEWVAQIKAKSQNYATYYAESVKGRFTISRDDSKNSLYLQMNSLKTEDTAVYYCRYVHYGAYYGVDAWGQGTTVTVSSASTKGPSVFPLAPSSKSTSGGTAALGCLVKDYFPEPVTVSWNSGALTSGVHTFPAVLQSSGLYSLSSVVTVPSSSLGTQTYICNVNHKPSNTKVDKKVEPKSCDKTHTCPPCPAPEAAGGPSVFLFPPKPKDTLMISRTPEVTCVVVDVSHEDPEVKFNWYVDGVEVHNAKTKPREEQYASTYRVVSVLTVLHQDWLNGKEYKCKVSNKALPAPIEKTISKAKGQPREPQVYTLPPSRCELTKNQVSLSCAVKGFYPSDIAVEWESNGQPENNYKTTPPVLDSDGSFFLVSKLTVDKSRWQQGNVFSCSVMHEALHNHYTQKSLSLSPDYKDDDDK
chain: EPKSSDKTHTCPPCPAPELLGGPSVFLFPPKPKDTLMISRTPEVTCVVVDVSHEDPEVKFNWYVDGVEVHNAKTKPREEQYNSTYRVVSVLTVLHQDWLNGKEYKCKVSNKALPAPIEKTISKAKGQPREPQVCTLPPSRDELTKNQVSLWCLVKGFYPSDIAVEWESNGQPENNYKTTPPVLDSDGSFFLYSKLTVDKSRWQQGNVFSCSVMHEALHNRYTQKSLSLSP
light: DIVMTQSPLSLPVTPGEPASISCRSSQSLVHSNRNTYLHWYQQKPGQAPRLLIYKVSNRFSGVPDRFSGSGSGTDFTLKISRVEAEDVGVYYCGQGTQVPYTFGQGTKLEIKRTVAAPSVFIFPPSDEQLKSGTASVVCLLNNFYPREAKVQWKVDNALQSGNSQESVTEQDSKDSTYSLSSTLTLSKADYEKHKVYACEVTHQGLSSPVTKSFNRGEC
notes: one-arm antibody
B6: CE115HA000 N53Y (antibody, human IgG1, kappa, L234A L235A, N297A, name in Kabat numbering)
heavy: QVQLVESGGGVVQPGRSLRLSCAASGFTFSNAWMHWVRQAPGKGLEWVAQIKAKSYNYATYYAESVKGRFTISRDDSKNSLYLQMNSLKTEDTAVYYCRYVHYGAYYGVDAWGQGTTVTVSSASTKGPSVFPLAPSSKSTSGGTAALGCLVKDYFPEPVTVSWNSGALTSGVHTFPAVLQSSGLYSLSSVVTVPSSSLGTQTYICNVNHKPSNTKVDKKVEPKSCDKTHTCPPCPAPEAAGGPSVFLFPPKPKDTLMISRTPEVTCVVVDVSHEDPEVKFNWYVDGVEVHNAKTKPREEQYASTYRVVSVLTVLHQDWLNGKEYKCKVSNKALPAPIEKTISKAKGQPREPQVYTLPPSRCELTKNQVSLSCAVKGFYPSDIAVEWESNGQPENNYKTTPPVLDSDGSFFLVSKLTVDKSRWQQGNVFSCSVMHEALHNHYTQKSLSLSPDYKDDDDK
chain: EPKSSDKTHTCPPCPAPELLGGPSVFLFPPKPKDTLMISRTPEVTCVVVDVSHEDPEVKFNWYVDGVEVHNAKTKPREEQYNSTYRVVSVLTVLHQDWLNGKEYKCKVSNKALPAPIEKTISKAKGQPREPQVCTLPPSRDELTKNQVSLWCLVKGFYPSDIAVEWESNGQPENNYKTTPPVLDSDGSFFLYSKLTVDKSRWQQGNVFSCSVMHEALHNRYTQKSLSLSP
light: DIVMTQSPLSLPVTPGEPASISCRSSQSLVHSNRNTYLHWYQQKPGQAPRLLIYKVSNRFSGVPDRFSGSGSGTDFTLKISRVEAEDVGVYYCGQGTQVPYTFGQGTKLEIKRTVAAPSVFIFPPSDEQLKSGTASVVCLLNNFYPREAKVQWKVDNALQSGNSQESVTEQDSKDSTYSLSSTLTLSKADYEKHKVYACEVTHQGLSSPVTKSFNRGEC
notes: one-arm antibody

What follows are binders tested against T1, CD3 epsilon homodimer protein (UniProt P07766 23-126) (assay: SPR, CD3 epsilon homodimer on chip, one-arm antibody as analyte;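 note: surface plasmon resonance at 25 °C with CD3 epsilon homodimer amine-coupled to a CM4 sensor chip, antibody injected as analyte, HBS-EP+ as running buffer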).
T1 construct: also called CD3 (CD3 epsilon)
T1 sequence (P07766 23-126): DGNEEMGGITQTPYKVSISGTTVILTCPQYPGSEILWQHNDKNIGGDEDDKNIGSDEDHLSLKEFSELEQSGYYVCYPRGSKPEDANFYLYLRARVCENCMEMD

Binder	KD ratio (KD of CE115HA000/KD of altered form)
B1	0.79
B2	0.58
B3	0.69
B4	0.59
B5	1.05
B6	0.94
